Residue numbers refer to the chain shown, from its start. Each block holds one binder with its values, some of them ahead of it.
Target: T1, human plasma kallikrein (human, UniProt P03952 20-390; P03952 391-638)
T1 construct: two disulfide-linked chains; also called pKal; human pKal
Assay: ELISA; signal on coated biotinylated human plasma kallikrein divided by signal on streptavidin; Fab
Description: Abbreviations used: "T/B" is the ELISA signal obtained using of the target (biotinylated plasma kallikrein) divided by the ELISA signal of the "background" (streptavidin); both of which were coated on microtiter plates. "nd" is not determined. The symbol "q" refers to the amber suppressible stop codon (TAG), which is translated as glutamine (Q) in strains of E. coli such as the TG1 cells that were used to express the Fab fragments.

T1 sequence (P03952 20-390, chain 1 of 2): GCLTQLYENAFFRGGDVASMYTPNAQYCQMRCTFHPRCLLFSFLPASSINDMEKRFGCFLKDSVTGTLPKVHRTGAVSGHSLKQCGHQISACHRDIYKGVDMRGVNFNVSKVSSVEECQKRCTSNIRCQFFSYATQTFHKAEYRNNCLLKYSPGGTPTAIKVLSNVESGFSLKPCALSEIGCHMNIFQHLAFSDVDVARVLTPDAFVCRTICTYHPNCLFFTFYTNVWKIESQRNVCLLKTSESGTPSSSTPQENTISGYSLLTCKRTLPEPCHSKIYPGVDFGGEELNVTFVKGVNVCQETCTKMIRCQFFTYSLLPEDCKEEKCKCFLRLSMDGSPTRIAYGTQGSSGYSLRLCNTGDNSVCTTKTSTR
T1 sequence (P03952 391-638, chain 2 of 2): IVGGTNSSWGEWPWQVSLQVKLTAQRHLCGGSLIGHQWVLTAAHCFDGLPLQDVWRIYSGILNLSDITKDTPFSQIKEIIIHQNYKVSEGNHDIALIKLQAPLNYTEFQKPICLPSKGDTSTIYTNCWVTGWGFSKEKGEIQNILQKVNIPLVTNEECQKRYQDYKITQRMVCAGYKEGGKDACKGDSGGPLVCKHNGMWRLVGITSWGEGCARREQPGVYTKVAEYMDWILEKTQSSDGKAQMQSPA

B2: M29-D10 (Fab, V domains shown)
VH: EVQLLESGGGLVQPGGSLRLSCAASGFTFSWYPMYWVRQAPGKGLEWVSSIGSSGGPTPYADSVKGRFTISRDNSKNTLYLQMNSLRAEDTAVYYCARWADYGGSLDYWGQGTLVTVSS
VL: DIQMTQSPSSLSASVGDTVSITCRASQSITIYLNWYQHKPGKAPNLLIYGASNLHSGVPSRFSGSGSGTDFTLTISSLQPEDFATYYCQQSYDTPLTFGGGTKVEIK
notes: Fab fragment (E. coli TG1); printed HC runs into the start of CH1
Human pKal ELISA (T/B): 23.6 T/B (target signal / background signal)

B3: M6-A08 (Fab, V domains shown)
VH: EVQLLESGGGLVQPGGSLRLSCAASGFTFSPYPMQWVRQAPGKGLEWVSSISSSGGMTEYADSVKGRFTISRDNSKNTLYLQMNSLRAEDTAVYYCARDDYGGKGGAFDIWGQGTMVTVSS
VL: DIQMTQSPSSLSASVGDRVTITCRASQRISFYLNWFQQKPGKAPNLLIYGASSLQSGVPSRFSGSGSGTDFTLTISSLQPKDFGTYYCQQTFSTPNTFGQGTKLEIK
notes: as for B2
Human pKal ELISA (T/B): 23.4 T/B (target signal / background signal)

B8: M28-D12 (Fab, V domains shown)
VH: EVQLLESGGGLVQPGGSLRLSCAASGFTFSWYTMHWVRQAPGKGLEWVSVIYPSGGPTSYADSVKGRFTISRDNSKNTLYLQMNSLRAEDTATYYCARDGSGSYLGFDYWGQGTLVTVSS
VL: DIQMTQSPSSLSASVGDRVTITCRASQSIATYLNWYQQKPGRAPKLLIYAASSLQSGVPSRFVGGGSGSGTHFTLTISSLQPEDFATYYCQQSYSTRETFGQGTKVEIK
notes: as for B2
Human pKal ELISA (T/B): 41.6 T/B (target signal / background signal)

B9: M29-G08 (Fab, V domains shown)
VH: EVQLLESGGGLVQPGGSLRLSCAASGFTFSYYHMWWVRQAPGKGLEWVSGISPSGGFTFYADSVKGRFTISRDNSKNTLYLQMNSLRAEDTAVYYCARDYYYDSSGYSPLGYWGQGTLVTVSS
VL: DIQMTQSPATLSASPGETVTLSCRASQNIGNDVAWYRQRPGQAPRLLIHHASTRAYGIPARLRGSGSATEFTLTITSLEPEDFAIYYCQQFYDWPAHTFALGTRLEIKR
notes: as for B2
Human pKal ELISA (T/B): 40.4 T/B (target signal / background signal)

B10: M28-E01 (Fab, V domains shown)
VH: EVQLLESGGGLVQPGGSLRLSCAASGFTFSSYPMGWVRQAPGKGLEWVSRISSSGGMTIYADSVKGRFTISRDNSKNTLYLQMNSLRAEDTAVYYCARDDWNVGMDVWGQGTTVTVSS
VL: DIQMTQSPSSLSASVGDRVTITCRASQSISSYLNWYQQKPGKAPKLLIYAASSLQSGVPSKFSGSGSGTDYTLTISSLQPEDFATYYCQQTYTTPWTFGQGTKVEIK
notes: as for B2
Human pKal ELISA (T/B): 41 T/B (target signal / background signal)

B12: M28-F07 (Fab, V domains shown)
VH: EVQLLESGGGLVQPGGSLRLSCAASGFTFSDYTMYWVRQAPGKGLEWVSSIVPSGGHTLYADSVKGRFTISRDNSKNTLYLQMNSLRAEDTAVYYCAKDHLSSWYGGFFDYWGQGTLVTVSS
VL: DIQMTQSPSSVSASVGDRVTITCRASQGISSWLAWYQQKPGKAPKLLIYATSGLQSGVPSRFSGSGSGTDFTLTISSLQPEDFATYYCQQAKSFPLTFGGGTRVEIK
notes: as for B2
Human pKal ELISA (T/B): 33 T/B (target signal / background signal)

B14: M28-E11 (Fab, V domains shown)
VH: EVQLLESGGGLVQPGGSLRLSCAASGFTFSLYDMTWVRQAPGKGLEWVSGISSSGGVTIYADSVKGRFTISRDNSKNTLYLQMNSLRAEDTAVYYCARTYYYDSSGYADAFDIWGQGTMVTVSS
VL: DIQMTQSPSSVSASVGDRVTINCRASQDISNWLAWYQQKPGKAPNLLIYAASSLQTGAPSRFSGSGSGTDFTLTISSLQPEDFGTYVCQQSYSLPWTFGLGTKVEVR
notes: as for B2
Human pKal ELISA (T/B): 29.3 T/B (target signal / background signal)

B15: M29-C07 (Fab, V domains shown)
VH: EVQLLESGGGLVQPGGSLRLSCAASGFTFSGYDMMWVRQAPGKGLEWVSVISSSGGNTAYADSVKGRFTISRDNSKNTLYLQMNSLRAEDTAVYYCARESSGLYYFDYWGQGTLVTVSS
VL: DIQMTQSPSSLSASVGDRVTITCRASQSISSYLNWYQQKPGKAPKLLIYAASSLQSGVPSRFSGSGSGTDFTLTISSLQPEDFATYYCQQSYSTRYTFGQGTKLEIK
notes: as for B2
Human pKal ELISA (T/B): 5.2 T/B (target signal / background signal)

B17: M6-A06 (Fab, V domains shown)
VH: EVQLLESGGGLVQPGGSLRLSCAASGFTFSLYQMTWVRQAPGKGLEWVSGIWPSGGFTDYADSVKGRFTISRDNSKNTLYLQMNSLRAEDTAVYYCARVSTAVADNDYWGQGTLVTVSS
VL: DIQMTQSPSSLSASVGDSVTISCRASQSISMYLNWYQHKPGKAPKLLIYGTSSLQSGVPSRFSGSGPGGTDFTLTISSLQPEDFATYYCQQSYSAPWTFGQGTKVEIK
notes: as for B2
Human pKal ELISA (T/B): 11.7 T/B (target signal / background signal)

Now from value to binder:

Human pKal ELISA (T/B): 10.3 T/B (target signal / background signal)
B1: M76-G02 (Fab, V domains shown)
VH: EVQLLESGGGLVQPGGSLRLSCAASGFTFSLYAMWWVRQAPGKGLEWVSYISSSGGFTSYADSVKGRFTISRDNSKNTLYLQMNSLRAEDTAVYYCARYRVGVAATDYWGQGTLVTVSS
VL: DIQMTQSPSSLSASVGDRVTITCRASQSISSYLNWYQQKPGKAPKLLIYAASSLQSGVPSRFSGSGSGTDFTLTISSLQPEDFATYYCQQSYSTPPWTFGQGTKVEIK
notes: as for B2

Human pKal ELISA (T/B): 16.4 T/B (target signal / background signal)
B4: M29-G10 (Fab, V domains shown)
VH: EVQLLESGGGLVQPGGSLRLSCAASGFTFSFYKMIWVRQAPGKGLEWVSSISSSGGSTQYADSVKGRFTISRDNSKNTLYLQMNSLRAEDTAVYYCARDRVDLGYLDYWGQGTLVTVSS
VL: DIQMTQSPSSLSSSVGDSATITCRASQSISIYLNWYQQKPGKAPKILIYGASQLESGVPSRFSGSGSGTDFTLTVSGLQPEDFATYWCQQSYNVPYTFGQGTKLEIK
notes: as for B2

Human pKal ELISA (T/B): 13.4 T/B (target signal / background signal)
B5: M76-H02 (Fab, V domains shown)
VH: EVQLLESGGGLVQPGGSLRLSCAASGFTFSMYWMQWVRQAPGKGLEWVSYIYPSGGPTKYADSVKGRFTISRDNSKNTLYLQMNSLRAEDTAVYYCARPSGSYGDAFDIWGQGTMVTVSS
VL: DIQMTQSPSSLSASEGDRVTITCRASQDISVYLNWYQMKSGKAPKLLIYGGASLQSGVPARFSGSGYGTDFTLTITDLRPEDFATYYCQQSYSLPFTFGGGTKVEIK
notes: as for B2

Human pKal ELISA (T/B): 6.4 T/B (target signal / background signal)
B6: M76-F02 (Fab, V domains shown)
VH: EVQLLESGGGLVQPGGSLRLSCAASGFTFSLYDMNWVRQAPGKGLEWVSGISPSGGQTMYADSVKGRFTISRDNSKNTLYLQMNSLRAEDTAVYYCARQPMISAFDIWGQGTMVTVSS
VL: DIQMTQSPSSLSASVGDRVTITCRASQTIDNYLHWYQQKPGKAPKVLIHDASSLQSGVPPRFSGSGSGTDFTLTISSLQPEDFATYYCQQSYDTPQYTFGQGTKLEIK
notes: as for B2

Human pKal ELISA (T/B): 7.6 T/B (target signal / background signal)
B7: M77-H04 (Fab, V domains shown)
VH: EVQLLESGGGLVQPGGSLRLSCAASGFTFSYYTMIWVRQAPGKGLEWVSGIRSSGGGTRYADSVKGRFTISRDNSKNTLYLQMNSLRAEDTAVYYCAKDGSRYSYGSIYYYYGMDAWGQGTTVTVSS
VL: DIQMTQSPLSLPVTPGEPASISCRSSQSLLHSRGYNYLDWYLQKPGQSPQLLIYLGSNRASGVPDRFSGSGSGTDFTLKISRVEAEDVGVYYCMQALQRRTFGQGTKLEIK
notes: as for B2

Human pKal ELISA (T/B): 16.1 T/B (target signal / background signal)
B11: M77-C07 (Fab, V domains shown)
VH: B17 VH with Q33I, T35G, W52Y, D59M, V99E, T101S, A102G, D105A, N106P
VL: B10 VL with S10T, S28N, K61R, Y71F, Y87S, T91S, T93S, W96R
notes: as for B2

Human pKal ELISA (T/B): 11.8 T/B (target signal / background signal)
B13: M76-G06 (Fab, V domains shown)
VH: EVQLLESGGGLVQPGGSLRLSCAASGFTFSGYIMHWVRQAPGKGLEWVSWIYPSGGWTEYADSVKGRFTISRDNSKNTLYLQMNSLRAEDTAVYYCARDAPGVGAIDYWGQGTLVTVSS
VL: DIQMTQSPSSLSASVRDRVTITCRASQSISTYLNWYQQKPGEAPKLLVFAASSLQSGVPSRFSGSGSGTDFTLSISSLQPEDFATYYCQQSYSTPHTFGQGAKVEIK
notes: as for B2

Human pKal ELISA (T/B): 8.6 T/B (target signal / background signal)
B16: M74-A07 (Fab, V domains shown)
VH: B17 VH with L31Q, Q33L, T35M, G50S, W52Y, F57Y, D59S
VL: DIQMTQSPSSLSASVRDRVTITCRTSQNINTYLNWYYQAPGRAPKLLIFGVSSLHRGVSSRFSGSGDGTEFTLTISSLQPEDIGTYFCQQSYSSPWTFGQGTKVEIK
notes: as for B2
